Assay results reported in paper PMC3326337.

Tested on: Streptavidin
Experiment: DRaCALA
Details: 5'-biotin on one strand

For 3x ICAP PCR probe with biotin, the Kd was 0.4 nM.
